Measurements taken from IntAct's records for PubMed 16330715.

B1: Neutrophil cytosol factor 1 (Homo sapiens), P14598 (parent)
chain: MGDTFIRHIALLGFEKRFVPSQHYVYMFLVKWQDLSEKVVYRRFTEIYEFHKTLKEMFPIEAGAINPENRIIPHLPAPKWFDGQRAAENRQGTLTEYCSTLMSLPTKISRCPHLLDFFKVRPDDLKLPTDNQTKKPETYLMPKDGKSTATDITGPIILQTYRAIANYEKTSGSEMALSTGDVVEVVEKSESGWWFCQMKAKRGWIPASFLEPLDSPDETEDPEPNYAGEPYVAIKAYTAVEGDEVSLLEGEAVEVIHKLLDGWWVIRKDDVTGYFPSMYLQKSGQDVSQAQRQIKRGAPPRRSSIRNAHSIHQRSRKRLSQDAYRRNSVRFLQQRRRQARPGPQSPGSPLEEERQTQRSKPQPAVPPRPSADLILNRCSESTKRKLASAV

Variants of: B1
Conditions: with fak2_human PTK2B

effect of a mutation on the interaction | Variant
increasing interaction strength | MGDTFIRHIALLGFEKRFVPSQHYVYMFLVKWQDLSEKVVYRRFTEIYEFHKTLKEMFPIEAGAINPENRIIPHLPAPKWFDGQRAAENRQGTLTEYCSTLMSLPTKISRCPHLLDFFKVRPDDLKLPTDNQTKKPETYLMPKDGKSTATDITGPIILQTYRAIANYEKTSGSEMALSTGDVVEVVEKSESGWWFCQMKAKRGWIPASFLEPLDSPDETEDPEPNYAGEPYVAIKAYTAVEGDEVSLLEGEAVEVIHKLLDGWWVIRKDDVTGYFPSMYLQKSGQDVSQAQRQIKRGAPPRRDDIRNAHSIHQRSRKRLSQDAYRRNDVRFLQQRRRQARPGPQSPGSPLEEERQTQRSKPQPAVPPRPSADLILNRCSESTKRKLASAV [S303D;S304D;S328D]
disrupting interaction strength | MGDTFIRHIALLGFEKRFVPSQHYVYMFLVKWQDLSEKVVYRRFTEIYEFHKTLKEMFPIEAGAINPENRIIPHLPAPKWFDGQRAAENRQGTLTEYCSTLMSLPTKISRCPHLLDFFKVRPDDLKLPTDNQTKKPETYLMPKDGKSTATDITGPIILQTYRAIANYEKTSGSEMALSTGDVVEVVEKSESGRWFCQMKAKRGWIPASFLEPLDSPDETEDPEPNYAGEPYVAIKAYTAVEGDEVSLLEGEAVEVIHKLLDGWWVIRKDDVTGYFPSMYLQKSGQDVSQAQRQIKRGAPPRRSSIRNAHSIHQRSRKRLSQDAYRRNSVRFLQQRRRQARPGPQSPGSPLEEERQTQRSKPQPAVPPRPSADLILNRCSESTKRKLASAV [W193R]
